Key:
Assay in all cases: cell-based or functional assay
[1] = target: Env of HIV-1RF virus (HIV-1 RF)
[2] = target: GRFT-resistant envelope Du156R18 (R)
[3] = target: GRFT-resistant envelope Du179 GRFT c17 (R)
[4] = target: HIV-1 subtype A envelope Q168.a2 (HIV-1 subtype A)
[5] = target: HIV-1 subtype A envelope Q23.17 (HIV-1 subtype A)
[6] = target: HIV-1 subtype B envelope CAAN5342.A2 (HIV-1 subtype B)
[7] = target: HIV-1 subtype B envelope JR-FL (HIV-1 subtype B)
[8] = target: HIV-1 subtype B envelope PVO.4 (HIV-1 subtype B)
[9] = target: HIV-1 subtype B envelope QH0692.42 (HIV-1 subtype B)
[10] = target: HIV-1 subtype C envelope CAP206.8 (HIV-1 subtype C)
[11] = target: HIV-1 subtype C envelope COT6.15 (HIV-1 subtype C)
[12] = target: HIV-1 subtype C envelope DU151.2 (HIV-1 subtype C)
[13] = target: HIV-1 subtype C envelope Du156.12 (HIV-1 subtype C)
[14] = target: HIV-1 subtype C envelope Du179.14 (HIV-1 subtype C)

Sequence of griffithsin (GRFT), native domain-swapped dimer (P84801 whole entry X31A, the tested form may be a part): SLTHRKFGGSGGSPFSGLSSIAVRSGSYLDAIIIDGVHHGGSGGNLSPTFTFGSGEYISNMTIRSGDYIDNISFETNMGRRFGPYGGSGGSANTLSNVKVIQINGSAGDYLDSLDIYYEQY

griffithsin (GRFT), native domain-swapped dimer (from UniProt P84801 1-121)
Anti-HIV EC50 (XTT cytopathicity assay, HIV-1RF, CEM-SS cells) [1]: 0.0138 nM
IC50 (pseudovirus neutralization, JC53bl-13 cells) [2]: 9.14 nM
fold reduction in activity between the WT (Du156.12) and R viruses [2]: 282 fold
fold reduction in activity between the WT (Du179.14) and R viruses [3]: > 82 fold
IC50 (pseudovirus neutralization, JC53bl-13 cells) [4]: 3.8 nM
IC50 (pseudovirus neutralization, JC53bl-13 cells) [5]: 1.19 nM
IC50 (pseudovirus neutralization, JC53bl-13 cells) [6]: 7.34 nM
IC50 (pseudovirus neutralization, JC53bl-13 cells) [7]: 0.922 nM
IC50 (pseudovirus neutralization, JC53bl-13 cells) [8]: 0.037 nM
IC50 (pseudovirus neutralization, JC53bl-13 cells) [9]: 0.0473 nM
IC50 (pseudovirus neutralization, JC53bl-13 cells) [10]: 2.14 nM
IC50 (pseudovirus neutralization, JC53bl-13 cells) [11]: 0.734 nM
IC50 (pseudovirus neutralization, JC53bl-13 cells) [12]: 1.49 nM
IC50 (pseudovirus neutralization, JC53bl-13 cells) [13]: 0.0324 nM
IC50 (pseudovirus neutralization, JC53bl-13 cells) [14]: 0.606 nM
